According to PMC8117670 (Science (New York, N.Y.), 2021):
Each block holds one binder with its values, some of them ahead of it.

Assays:
Assay in all cases: cryo-EM structure
[1] = target: T1, Med23 (human, UniProt Q9ULK4 1-1368)
T1 sequence: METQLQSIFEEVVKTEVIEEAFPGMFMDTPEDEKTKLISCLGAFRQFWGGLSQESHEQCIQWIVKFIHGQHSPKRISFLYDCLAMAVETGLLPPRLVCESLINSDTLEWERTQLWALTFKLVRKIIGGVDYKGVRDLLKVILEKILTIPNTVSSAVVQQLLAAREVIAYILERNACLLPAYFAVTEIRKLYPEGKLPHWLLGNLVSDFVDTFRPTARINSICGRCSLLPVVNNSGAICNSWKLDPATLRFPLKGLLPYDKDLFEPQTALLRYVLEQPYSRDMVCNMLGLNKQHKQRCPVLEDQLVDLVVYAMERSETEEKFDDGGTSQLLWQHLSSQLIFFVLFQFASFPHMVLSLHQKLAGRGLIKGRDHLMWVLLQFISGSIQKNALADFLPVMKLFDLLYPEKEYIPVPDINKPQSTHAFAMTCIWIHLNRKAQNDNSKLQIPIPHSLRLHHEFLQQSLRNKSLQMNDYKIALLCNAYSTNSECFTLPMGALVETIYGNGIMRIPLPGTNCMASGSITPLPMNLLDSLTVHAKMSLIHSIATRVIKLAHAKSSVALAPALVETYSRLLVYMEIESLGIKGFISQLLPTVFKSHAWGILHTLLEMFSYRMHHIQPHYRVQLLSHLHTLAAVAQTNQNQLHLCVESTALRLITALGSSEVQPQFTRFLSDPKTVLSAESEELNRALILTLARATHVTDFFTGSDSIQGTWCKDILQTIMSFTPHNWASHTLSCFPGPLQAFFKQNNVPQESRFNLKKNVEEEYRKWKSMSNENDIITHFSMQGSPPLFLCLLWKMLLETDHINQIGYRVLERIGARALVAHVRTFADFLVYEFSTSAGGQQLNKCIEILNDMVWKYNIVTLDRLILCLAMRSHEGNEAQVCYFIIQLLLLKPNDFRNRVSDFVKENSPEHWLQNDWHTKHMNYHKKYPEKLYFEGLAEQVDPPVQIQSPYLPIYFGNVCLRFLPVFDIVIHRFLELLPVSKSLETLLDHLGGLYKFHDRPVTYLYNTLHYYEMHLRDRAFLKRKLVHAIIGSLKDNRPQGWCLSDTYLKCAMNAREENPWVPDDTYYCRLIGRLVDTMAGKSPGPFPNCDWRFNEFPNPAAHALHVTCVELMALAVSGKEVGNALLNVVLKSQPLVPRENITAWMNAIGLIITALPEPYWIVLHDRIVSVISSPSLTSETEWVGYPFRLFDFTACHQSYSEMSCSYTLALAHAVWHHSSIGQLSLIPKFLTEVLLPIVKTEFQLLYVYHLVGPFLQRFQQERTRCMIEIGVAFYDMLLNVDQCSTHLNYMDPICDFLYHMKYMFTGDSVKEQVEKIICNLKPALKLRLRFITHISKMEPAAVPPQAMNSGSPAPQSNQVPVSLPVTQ

[2] = target: Med1 (human, UniProt Q15648 1-1581)
Med1, sequence (Q15648 whole entry): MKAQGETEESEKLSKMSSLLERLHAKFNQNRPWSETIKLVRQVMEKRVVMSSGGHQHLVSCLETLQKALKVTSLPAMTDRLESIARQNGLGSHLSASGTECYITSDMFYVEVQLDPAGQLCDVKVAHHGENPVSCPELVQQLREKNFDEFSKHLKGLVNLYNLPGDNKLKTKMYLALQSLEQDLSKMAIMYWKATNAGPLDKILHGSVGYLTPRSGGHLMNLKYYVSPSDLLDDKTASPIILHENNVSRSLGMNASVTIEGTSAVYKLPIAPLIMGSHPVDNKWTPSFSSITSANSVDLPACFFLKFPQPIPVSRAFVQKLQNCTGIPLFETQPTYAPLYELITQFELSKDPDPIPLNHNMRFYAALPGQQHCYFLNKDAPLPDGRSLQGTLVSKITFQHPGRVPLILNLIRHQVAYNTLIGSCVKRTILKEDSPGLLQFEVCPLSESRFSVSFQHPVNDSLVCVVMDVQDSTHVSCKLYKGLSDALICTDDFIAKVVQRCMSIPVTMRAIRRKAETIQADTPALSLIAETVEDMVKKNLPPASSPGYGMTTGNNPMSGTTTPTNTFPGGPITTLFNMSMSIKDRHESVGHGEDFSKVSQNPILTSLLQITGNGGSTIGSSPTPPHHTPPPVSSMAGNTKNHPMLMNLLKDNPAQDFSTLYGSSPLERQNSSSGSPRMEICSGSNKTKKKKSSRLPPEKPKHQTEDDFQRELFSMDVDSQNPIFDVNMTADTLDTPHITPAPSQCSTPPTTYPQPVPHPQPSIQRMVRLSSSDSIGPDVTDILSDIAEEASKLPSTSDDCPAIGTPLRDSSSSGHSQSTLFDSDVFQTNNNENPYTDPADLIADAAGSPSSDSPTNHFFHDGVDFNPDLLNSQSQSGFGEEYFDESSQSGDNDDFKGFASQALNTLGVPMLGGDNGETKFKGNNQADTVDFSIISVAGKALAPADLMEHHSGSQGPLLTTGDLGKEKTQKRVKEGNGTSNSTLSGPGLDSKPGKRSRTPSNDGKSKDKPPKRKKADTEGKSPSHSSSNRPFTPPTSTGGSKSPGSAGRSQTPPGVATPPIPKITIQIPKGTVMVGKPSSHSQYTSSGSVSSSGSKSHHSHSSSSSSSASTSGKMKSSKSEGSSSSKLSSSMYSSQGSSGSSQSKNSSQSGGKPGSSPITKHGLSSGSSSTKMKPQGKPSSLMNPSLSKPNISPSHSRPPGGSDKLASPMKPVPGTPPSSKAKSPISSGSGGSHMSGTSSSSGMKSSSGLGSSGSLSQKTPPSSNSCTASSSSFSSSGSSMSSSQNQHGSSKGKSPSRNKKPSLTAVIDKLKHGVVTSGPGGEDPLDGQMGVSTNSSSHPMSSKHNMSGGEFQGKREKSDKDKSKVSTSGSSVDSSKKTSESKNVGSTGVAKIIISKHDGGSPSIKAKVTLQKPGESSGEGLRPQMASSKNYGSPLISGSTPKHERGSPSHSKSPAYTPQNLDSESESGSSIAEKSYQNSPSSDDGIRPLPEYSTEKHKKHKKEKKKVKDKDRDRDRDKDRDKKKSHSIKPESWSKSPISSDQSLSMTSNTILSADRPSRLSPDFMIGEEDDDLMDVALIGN

[3] = target: RPB1, the largest subunit of RNA polymerase II (human, UniProt P24928 1-1970)
[4] = target: Med14 (human, UniProt O60244 1-1454)
Med14, sequence (O60244 whole entry): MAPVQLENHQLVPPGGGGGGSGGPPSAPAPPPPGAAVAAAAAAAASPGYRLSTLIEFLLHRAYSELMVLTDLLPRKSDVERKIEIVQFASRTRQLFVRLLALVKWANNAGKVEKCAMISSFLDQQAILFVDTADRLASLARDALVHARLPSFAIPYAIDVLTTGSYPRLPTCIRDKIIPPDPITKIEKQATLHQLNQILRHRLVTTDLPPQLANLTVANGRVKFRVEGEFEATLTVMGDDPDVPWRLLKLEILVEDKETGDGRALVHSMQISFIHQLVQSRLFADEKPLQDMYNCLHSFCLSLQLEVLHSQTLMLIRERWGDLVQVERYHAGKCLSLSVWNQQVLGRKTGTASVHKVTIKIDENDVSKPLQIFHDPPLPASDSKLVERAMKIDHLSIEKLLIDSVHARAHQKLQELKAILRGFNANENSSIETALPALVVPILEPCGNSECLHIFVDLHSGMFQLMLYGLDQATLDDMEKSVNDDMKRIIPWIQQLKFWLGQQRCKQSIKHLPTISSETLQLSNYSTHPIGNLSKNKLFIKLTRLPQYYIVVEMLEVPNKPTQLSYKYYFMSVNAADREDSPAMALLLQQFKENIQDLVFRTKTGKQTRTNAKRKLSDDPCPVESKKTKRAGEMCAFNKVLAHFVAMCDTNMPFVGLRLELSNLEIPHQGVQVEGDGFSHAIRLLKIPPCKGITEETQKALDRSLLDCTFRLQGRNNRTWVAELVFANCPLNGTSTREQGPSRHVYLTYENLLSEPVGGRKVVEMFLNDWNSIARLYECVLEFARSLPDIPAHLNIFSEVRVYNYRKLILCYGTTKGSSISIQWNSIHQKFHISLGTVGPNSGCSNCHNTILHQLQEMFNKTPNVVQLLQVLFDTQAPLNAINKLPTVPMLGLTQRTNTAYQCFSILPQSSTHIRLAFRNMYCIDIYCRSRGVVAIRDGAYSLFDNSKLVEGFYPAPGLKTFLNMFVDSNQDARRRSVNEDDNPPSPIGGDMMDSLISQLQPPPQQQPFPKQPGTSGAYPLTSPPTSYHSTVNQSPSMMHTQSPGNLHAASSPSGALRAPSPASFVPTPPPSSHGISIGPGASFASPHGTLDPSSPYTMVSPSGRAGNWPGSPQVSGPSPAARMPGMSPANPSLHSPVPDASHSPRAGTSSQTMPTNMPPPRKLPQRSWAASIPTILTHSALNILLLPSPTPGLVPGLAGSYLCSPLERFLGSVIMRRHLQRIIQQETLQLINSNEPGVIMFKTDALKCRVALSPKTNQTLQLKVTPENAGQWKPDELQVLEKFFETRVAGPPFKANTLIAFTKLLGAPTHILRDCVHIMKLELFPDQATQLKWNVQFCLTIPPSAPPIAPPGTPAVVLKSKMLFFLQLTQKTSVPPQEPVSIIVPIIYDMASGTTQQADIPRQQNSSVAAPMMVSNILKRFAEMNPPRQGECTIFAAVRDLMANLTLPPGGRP

B1: Med25 (natural protein, human)
chain: MVPGSEGPARAGSVVADVVFVIEGTANLGPYFEGLRKHYLLPAIEYFNGGPPAETDFGGDYGGTQYSLVVFNTVDCAPESYVQCHAPTSSAYEFVTWLDGIKFMGGGGESCSLIAEGLSTALQLFDDFKKMREQIGQTHRVCLLICNSPPYLLPAVESTTYSGCTTENLVQQIGERGIHFSIVSPRKLPALRLLFEKAAPPALLEPLQPPTDVSQDPRHMVLVRGLVLPVGGGSAPGPLQSKQPVPLPPAAPSGATLSAAPQQPLPPVPPQYQVPGNLSAAQVAAQNAVEAAKNQKAGLGPRFSPITPLQQAAPGVGPPFSQAPAPQLPPGPPGAPKPPPASQPSLVSTVAPGSGLAPTAQPGAPSMAGTVAPGGVSGPSPAQLGAPALGGQQSVSNKLLAWSGVLEWQEKPKPASVDANTKLTRSLPCQVYVNHGENLKTEQWPQKLIMQLIPQQLLTTLGPLFRNSRMVQFHFTNKDLESLKGLYRIMGNGFAGCVHFPHTAPCEVRVLMLLYSSKKKIFMGLIPYDQSGFVNGIRQVITNHKQVQQQKLEQQQRGMGGQQAPPGLGPILEDQARPSQNLLQLRPPQPQPQGTVGASGATGQPQPQGTAQPPPGAPQGPPGAASGPPPPGPILRPQNPGANPQLRSLLLNPPPPQTGVPPPQASLHHLQPPGAPALLPPPHQGLGQPQLGPPLLHPPPAQSWPAQLPPRAPLPGQMLLSGGPRGPVPQPGLQPSVMEDDILMDLI
- binding result [1]: binds

B2: Med9 (natural protein, human)
chain: MASAGVAAGRQAEDVLPPTSDQPLPDTKPLPPPQPPPVPAPQPQQSPAPRPQSPARAREEENYSFLPLVHNIIKCMDKDSPEVHQDLNALKSKFQEMRKLISTMPGIHLSPEQQQQQLQSLREQVRTKNELLQKYKSLCMFEIPKE
- binding result [2]: binds

B3: Med31 (natural protein)
chain: MAAAVAMETDDAGNRLRFQLELEFVQCLANPNYLNFLAQRGYFKDKAFVNYLKYLLYWKDPEYAKYLKYPQCLHMLELLQYEHFRKELVNAQCAKFIDEQQILHWQHYSRKRMRLQQALAEQQQQNNTSGK
- binding result [3]: binds

B4: Med17 (natural protein, human)
chain: MSGVRAVRISIESACEKQVHEVGLDGTETYLPPLSMSQNLARLAQRIDFSQGSGSEEEEAAGTEGDAQEWPGAGSSADQDDEEGVVKFQPSLWPWDSVRNNLRSALTEMCVLYDVLSIVRDKKFMTLDPVSQDALPPKQNPQTLQLISKKKSLAGAAQILLKGAERLTKSVTENQENKLQRDFNSELLRLRQHWKLRKVGDKILGDLSYRSAGSLFPHHGTFEVIKNTDLDLDKKIPEDYCPLDVQIPSDLEGSAYIKVSIQKQAPDIGDLGTVNLFKRPLPKSKPGSPHWQTKLEAAQNVLLCKEIFAQLSREAVQIKSQVPHIVVKNQIISQPFPSLQLSISLCHSSNDKKSQKFATEKQCPEDHLYVLEHNLHLLIREFHKQTLSSIMMPHPASAPFGHKRMRLSGPQAFDKNEINSLQSSEGLLEKIIKQAKHIFLRSRAAATIDSLASRIEDPQIQAHWSNINDVYESSVKVLITSQGYEQICKSIQLQLNIGVEQIRVVHRDGRVITLSYQEQELQDFLLSQMSQHQVHAVQQLAKVMGWQVLSFSNHVGLGPIESIGNASAITVASPSGDYAISVRNGPESGSKIMVQFPRNQCKDLPKSDVLQDNKWSHLRGPFKEVQWNKMEGRNFVYKMELLMSALSPCLL
- binding result [4]: binds

Continued, values first:

- binding result [2]: binds
B5: Med4 (natural protein, human)
chain: MAASSSGEKEKERLGGGLGVAGGNSTRERLLSALEDLEVLSRELIEMLAISRNQKLLQAGEENQVLELLIHRDGEFQELMKLALNQGKIHHEMQVLEKEVEKRDSDIQQLQKQLKEAEQILATAVYQAKEKLKSIEKARKGAISSEEIIKYAHRISASNAVCAPLTWVPGDPRRPYPTDLEMRSGLLGQMNNPSTNGVNGHLPGDALAAGRLPDVLAPQYPWQSNDMSMNMLPPNHSSDFLLEPPGHNKENEDDVEIMSTDSSSSSSESD

- binding result [2]: binds
B6: Med24 (natural protein, human)
chain: MKVVNLKQAILQAWKERWSDYQWAINMKKFFPKGATWDILNLADALLEQAMIGPSPNPLILSYLKYAISSQMVSYSSVLTAISKFDDFSRDLCVQALLDIMDMFCDRLSCHGKAEECIGLCRALLSALHWLLRCTAASAERLREGLEAGTPAAGEKQLAMCLQRLEKTLSSTKNRALLHIAKLEEASSWTAIEHSLLKLGEILANLSNPQLRSQAEQCGTLIRSIPTMLSVHAEQMHKTGFPTVHAVILLEGTMNLTGETQSLVEQLTMVKRMQHIPTPLFVLEIWKACFVGLIESPEGTEELKWTAFTFLKIPQVLVKLKKYSHGDKDFTEDVNCAFEFLLKLTPLLDKADQRCNCDCTNFLLQECGKQGLLSEASVNNLMAKRKADREHAPQQKSGENANIQPNIQLILRAEPTVTNILKTMDADHSKSPEGLLGVLGHMLSGKSLDLLLAAAAATGKLKSFARKFINLNEFTTYGSEESTKPASVRALLFDISFLMLCHVAQTYGSEVILSESRTGAEVPFFETWMQTCMPEEGKILNPDHPCFRPDSTKVESLVALLNNSSEMKLVQMKWHEACLSISAAILEILNAWENGVLAFESIQKITDNIKGKVCSLAVCAVAWLVAHVRMLGLDEREKSLQMIRQLAGPLFSENTLQFYNERVVIMNSILERMCADVLQQTATQIKFPSTGVDTMPYWNLLPPKRPIKEVLTDIFAKVLEKGWVDSRSIHIFDTLLHMGGVYWFCNNLIKELLKETRKEHTLRAVELLYSIFCLDMQQVTLVLLGHILPGLLTDSSKWHSLMDPPGTALAKLAVWCALSSYSSHKGQASTRQKKRHREDIEDYISLFPLDDVQPSKLMRLLSSNEDDANILSSPTDRSMSSSLSASQLHTVNMRDPLNRVLANLFLLISSILGSRTAGPHTQFVQWFMEECVDCLEQGGRGSVLQFMPFTTVSELVKVSAMSSPKVVLAITDLSLPLGRQVAAKAIAAL
